Test results as given in US8822645B2, “Prostaglandin E2 dual variable domain immunoglobulins and uses thereof” (AbbVie Inc., priority 2008, dated 2014).

Tests used:
[1] = tested on: stable cell lines overexpressing a cell-surface antigen of interest or human tumor cell lines; assay: Flow cytometry (FACS) binding to cell surface antigen; type: cell-based; conditions: IL-6R VD in N-terminal position; 2 μg/mL
Description: Stable cell lines overexpressing cell-surface antigen of interest or human tumor cell lines were harvested from tissue culture flasks and resuspended in phosphate buffered saline (PBS) containing 5% fetal calf serum (PBS/FCS). Prior to staining, human tumor cells were incubated on ice with human IgG at 200 μg/ml in PBS/FCS. 1-5×10^5 cells were incubated with antibody or DVD-Ig (1-2 μg/mL) in PBS/FCS for 30-60 minutes on ice. […] After 30 minutes incubation on ice, cells were washed twice and resuspended in PBS/FCS. Fluorescence was measured using a Becton Dickinson FACSCalibur (Becton Dickinson, San Jose, Calif.).
Stable cell lines overexpressing a cell-surface antigen of interest or human tumor cell lines were harvested from tissue culture flasks and resuspended in phosphate buffered saline (PBS) containing 5% fetal bovine serum (PBS/FBS). Prior to staining, human tumor cells were incubated on ice with (100 μl) human IgG at 5 μg/ml in PBS/FCS. 1-5×10^5 cells were incubated with antibody or DVD-Ig (2 μg/mL) in PBS/FBS for 30-60 minutes on ice. […] After 30 minutes incubation on ice, cells were washed twice and resuspended in PBS/FBS. Fluorescence was measured using a Becton Dickinson FACSCalibur (Becton Dickinson, San Jose, Calif.).
The geometric mean is the n root of the multiplication product of n fluorescent signals (a1×a2×a3 . . . an). […]

target antigen = assay: BIACORE affinity determination of parent antibodies and DVD-Ig constructs; type: binding; conditions: antigen IL-6R, 25° C.
Description: The BIACORE assay (Biacore, Inc, Piscataway, N.J.) determines the affinity of antibodies or DVD-Ig with kinetic measurements of on-rate and off-rate constants. […] All chemicals are obtained from Biacore® AB (Uppsala, Sweden) or otherwise from a different source as described in the text. For example, approximately 5000 RU of goat anti-mouse IgG, (Fcγ), fragment specific polyclonal antibody (Pierce Biotechnology Inc, Rockford, Ill.) diluted in 10 mM sodium acetate (pH 4.5) is directly immobilized across a CM5 research grade biosensor chip using a standard amine coupling kit according to manufacturer's instructions and procedures at 25 μg/ml. Unreacted moieties on the biosensor surface are blocked with ethanolamine. Modified carboxymethyl dextran surface in flowcell 2 and 4 is used as a reaction surface. Unmodified carboxymethyl dextran without goat anti-mouse IgG in flow cell 1 and 3 is used as the reference surface. For kinetic analysis, rate equations derived from the 1:1 Langmuir binding model are fitted simultaneously to association and dissociation phases of all eight injections (using global fit analysis) with the use of Biaevaluation 4.0.1 software. Purified antibodies or DVD-Ig are diluted in HEPES-buffered saline for capture across goat anti-mouse IgG specific reaction surfaces. Antibodies or DVD-Ig to be captured as a ligand (25 μg/ml) are injected over reaction matrices at a flow rate of 5 μl/min. The association and dissociation rate constants, kon (M^−1 s^−1) and koff (s^−1) are determined under a continuous flow rate of 25 μl/min. Rate constants are derived by making kinetic binding measurements at different antigen concentrations ranging from 10-200 nM. The equilibrium dissociation constant (M) of the reaction between antibodies or DVD-Igs and the target antigen is then calculated from the kinetic rate constants by the following formula: KD=koff/kon. Binding is recorded as a function of time and kinetic rate constants are calculated. In this assay, on-rates as fast as 10^6 M^−1 s^−1 and off-rates as slow as 10^−6 s^−1 can be measured.

[2] = PGE2-biotinamide ELISA (PGE2 binding); conditions: PGE2 VD in C-terminal position, read-out: Direct Bind ELISA C-terminal VD EC50
Summary of the method: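 Antibody or DVD-Ig (1 µg/ml) captured on anti-host Fc IgG-coated plates for 1 h at room temperature, then titrated with PGE2-biotinamide serially diluted from 30 nM for 1 h. Binding detected with streptavidin-polyHRP and TMB, absorbance read at 450 nm; EC50 from the titration curve.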

B1: DVD152: DVD-Ig construct listed in Table 4 (antibody)
VH: EVQLQESGPGLVRPSQTLSLTCTVSGYSITSDHAWSWVRQPPGRGLEWIGYISYSGITTYNPSLKSRVTMLRDTSKNQFSLRLSSVTAADTAVYYCARSLARTTAMDYWGQGSLVTVSSASTKGPEVQLVQSGAEVKKPGASVKVSCKASGYTFTKYWLGWVRQAPGQGLEWMGDIYPGYDYTHYNEKFKDRVTLTTDTSTSTAYMELRSLRSDDTAVYYCARSDGSSTYWGQGTLVTVSS
VL: DIQMTQSPSSLSASVGDRVTITCRASQDISSYLNWYQQKPGKAPKLLIYYTSRLHSGVPSRFSGSGSGTDFTFTISSLQPEDIATYYCQQGNTLPYTFGQGTKVEIKRTVAAPDVLMTQTPLSLPVTPGEPASISCTSSQNIVHSNGNTYLEWYLQKPGQSPQLLIYKVSNRFSGVPDRFSGSGSGTDFTLKISRVEAEDVGVYYCFQVSHVPYTFGGGTKVEIKR
[1]
  FACS Geometric Mean N-terminal: 9.13
Target antigen; IL-6R binding by C-terminal domain
  koff: 0.00015 s⁻¹
Target antigen; IL-6R binding by N-terminal domain
  koff: 0.000115 s⁻¹
[2]
  EC50: 1.65 nM
